Data reported in patent US20030092613A1, “Alpha7 nicotinic receptor peptides as ligands for beta amyloid peptides” (priority 2000, published 2003).

Legend:
β-amyloid1-42, P05067 = experiment: cell-based or functional assay
[1] = biological target: T1, 125I-α-bungarotoxin, P60615
T1 chain: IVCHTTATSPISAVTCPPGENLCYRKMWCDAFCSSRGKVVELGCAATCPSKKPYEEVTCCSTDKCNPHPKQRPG

Binder | ACh rel % Inh @ 100 µM (β-amyloid1-42, P05067) [%] | Inh ACh rel IC50 (β-amyloid1-42, P05067) [µM] | IC50 [1] [µM]
Ac-SEAFYECCKEP-NH2 (cysteine pairing not given here) | 70 | 0.277 | 9.6
Ac-SERFYECCKEP-NH2 (cysteine pairing not given here) | 89 | 0.125 | 19
Ac-SERFAECCKEP-NH2 (cysteine pairing not given here) | 18 | > 10 | > 100
Ac-AERFYECCKEP-NH2 (cysteine pairing not given here) | 15 | > 10 | 15
Ac-SERFYECCKEA-NH2 (cysteine pairing not given here) | 59 | < 10 | > 100
Ac-IPGKRSERFYECCKEPYP-NH2 (cysteine pairing not given here) | 79 | 0.71 | –
Ac-SERAYECCKEP-NH2 (cysteine pairing not given here) | 14 | > 10 | > 100
Ac-SERFYACCKEP-NH2 (cysteine pairing not given here) | 14 | > 10 | 9.5
Ac-SERFYECAKEP-NH2 | 85 | 0.165 | > 100
Ac-SARFYECCKEP-NH2 (cysteine pairing not given here) | 13 | > 10 | 8.4
Ac-GIPGKRSERFYECCK-NH2 (cysteine pairing not given here) | 73 | 1.21 | –
Ac-SERFYECCKAP-NH2 (cysteine pairing not given here) | 75 | 0.426 | > 100
Ac-SERFYEACKEP-NH2 | 19 | > 10 | > 100
Ac-SERFYECCAEP-NH2 (cysteine pairing not given here) | 19 | > 10 | 1.3
Ac-IPGKRSERFYECCKEPYPDV-NH2 (cysteine pairing not given here) | 73 | 0.626 | 0.2
